We go through four substances from article PMC9820293.

The target in test [1] is Bovine cardiac actin, filamentous (F-actin) (bovine) (UniProt Q3ZC07).
The target is the same in test [2]. The source holds these as a separate data set.
The target is the same in test [3]. This is another data set of the same source.
The target is the same in test [4]. In words: temperature dependence of light scattering; thermally induced dissociation of Tpm complexes with F-actin stabilized by phalloidin; light scattering at 90°, 350 nm, heating 1 °C/min; Tdiss is the temperature at which a 50% decrease in light scattering occurs; no troponin.
Test [5] shares this target. In words: co-sedimentation; Tpm co-sedimented with F-actin at room temperature; apparent affinity; K50% is the Tpm concentration at which half of the actin becomes saturated; three measurements averaged; as described in refs 27, 28.

“Atrial myosin from the left atrium of the pig (from UniProt F1RRT2 1-197; F1SSF9 1-175) (complex)”: in test [1], the C50 of LA myosin for the sliding velocity of thin filaments at saturated Ca2+ concentration, in vitro motility assay; thin filament with D219V Tpm was 47.2 µg/mL and the C50 of LA myosin for the sliding velocity of thin filaments at saturated Ca2+ concentration, in vitro motility assay; thin filament with WT Tpm is 45.3 µg/mL. Moreover, in test [2], the C50, myosin concentration at which the sliding velocity is half-maximal, in vitro motility assay; filament: F-actin alone was determined as 18 µg/mL; the C50, myosin concentration at which the sliding velocity is half-maximal, in vitro motility assay; filament: F-actin with D219V Tpm was 43 µg/mL; the C50, myosin concentration at which the sliding velocity is half-maximal, in vitro motility assay; filament: F-actin with WT Tpm stood at 55.4 µg/mL; the Vmax, sliding velocity at saturated myosin concentration, in vitro motility assay; filament: F-actin alone was determined as 3.26 µm/s. In addition, in test [2], the Vmax, sliding velocity at saturated myosin concentration, in vitro motility assay; filament: F-actin with D219V Tpm was found to be 3.32 µm/s and the Vmax, sliding velocity at saturated myosin concentration, in vitro motility assay; filament: F-actin with WT Tpm turned out to be 1.25 µm/s. For the same substance, in test [3], the V0, sliding velocity at low Ca2+ concentration, in vitro motility assay; regulated thin filament of F-actin, D219V Tpm and troponin was found to be 1.42 µm/s; the V0, sliding velocity at low Ca2+ concentration, in vitro motility assay; regulated thin filament of F-actin, WT Tpm and troponin is 0.39 µm/s; the Vmax, sliding velocity at saturated Ca2+ concentration, in vitro motility assay; regulated thin filament of F-actin, D219V Tpm and troponin came to 8.45 µm/s; the Vmax, sliding velocity at saturated Ca2+ concentration, in vitro motility assay; regulated thin filament of F-actin, WT Tpm and troponin was 7.17 µm/s.

Regarding “Human Tpm1.1 D219V mutant (natural protein)”, the Tdiss in test [4] was 45.3 °C. Also, the K50% in test [5] was 2.64 µM.

In the case of “Human Tpm1.1 WT (cardiac tropomyosin 1.1) (natural protein)”, the Tdiss in test [4] stood at 43.3 °C. In addition, the K50% in test [5] was 2.88 µM.

In test [1], “Ventricular myosin from the left ventricle of the pig (from UniProt P79293 1-1935) (complex)” displayed a C50 of LV myosin for the sliding velocity of thin filaments at saturated Ca2+ concentration, in vitro motility assay; thin filament with D219V Tpm of 25.9 µg/mL and a C50 of LV myosin for the sliding velocity of thin filaments at saturated Ca2+ concentration, in vitro motility assay; thin filament with WT Tpm of 30.1 µg/mL. Moreover, in test [2], the C50, myosin concentration at which the sliding velocity is half-maximal, in vitro motility assay; filament: F-actin alone was determined as 20.1 µg/mL; the C50, myosin concentration at which the sliding velocity is half-maximal, in vitro motility assay; filament: F-actin with D219V Tpm worked out at 26 µg/mL; the C50, myosin concentration at which the sliding velocity is half-maximal, in vitro motility assay; filament: F-actin with WT Tpm was determined as 54.9 µg/mL; the Vmax, sliding velocity at saturated myosin concentration, in vitro motility assay; filament: F-actin alone worked out at 2.88 µm/s. Moreover, in test [2], the Vmax, sliding velocity at saturated myosin concentration, in vitro motility assay; filament: F-actin with D219V Tpm worked out at 2.93 µm/s and the Vmax, sliding velocity at saturated myosin concentration, in vitro motility assay; filament: F-actin with WT Tpm is 1.5 µm/s. In test [3], the V0, sliding velocity at low Ca2+ concentration, in vitro motility assay; regulated thin filament of F-actin, D219V Tpm and troponin is 0.81 µm/s; the V0, sliding velocity at low Ca2+ concentration, in vitro motility assay; regulated thin filament of F-actin, WT Tpm and troponin was 0.24 µm/s; the Vmax, sliding velocity at saturated Ca2+ concentration, in vitro motility assay; regulated thin filament of F-actin, D219V Tpm and troponin was 4.22 µm/s; the Vmax, sliding velocity at saturated Ca2+ concentration, in vitro motility assay; regulated thin filament of F-actin, WT Tpm and troponin was 3.73 µm/s.
